Test system: peptide library, one residue held at a place counted from the S/T acceptor
Assay: relative phosphorylation of the sub-library (ratio to the mean residue at this position); human; higher = residue favoured
Summary of the method: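 Purified recombinant kinases (human or orthologue constructs) were incubated in 384-well plates with biotinylated degenerate peptide sub-libraries, each fixing one residue at one position around a central Ser/Thr. Peptides were at 50 μM, with 50 μM ATP spiked with γ-32P-ATP, for 90 min under kinase-specific conditions. Spots on streptavidin membranes were phosphorimaged and quantified by densitometry. Relative sub-library phosphorylation is a ratio to the mean residue at that position.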

Chain of TTBK1, construct: Full length (Q5TCY1 whole entry, looked up): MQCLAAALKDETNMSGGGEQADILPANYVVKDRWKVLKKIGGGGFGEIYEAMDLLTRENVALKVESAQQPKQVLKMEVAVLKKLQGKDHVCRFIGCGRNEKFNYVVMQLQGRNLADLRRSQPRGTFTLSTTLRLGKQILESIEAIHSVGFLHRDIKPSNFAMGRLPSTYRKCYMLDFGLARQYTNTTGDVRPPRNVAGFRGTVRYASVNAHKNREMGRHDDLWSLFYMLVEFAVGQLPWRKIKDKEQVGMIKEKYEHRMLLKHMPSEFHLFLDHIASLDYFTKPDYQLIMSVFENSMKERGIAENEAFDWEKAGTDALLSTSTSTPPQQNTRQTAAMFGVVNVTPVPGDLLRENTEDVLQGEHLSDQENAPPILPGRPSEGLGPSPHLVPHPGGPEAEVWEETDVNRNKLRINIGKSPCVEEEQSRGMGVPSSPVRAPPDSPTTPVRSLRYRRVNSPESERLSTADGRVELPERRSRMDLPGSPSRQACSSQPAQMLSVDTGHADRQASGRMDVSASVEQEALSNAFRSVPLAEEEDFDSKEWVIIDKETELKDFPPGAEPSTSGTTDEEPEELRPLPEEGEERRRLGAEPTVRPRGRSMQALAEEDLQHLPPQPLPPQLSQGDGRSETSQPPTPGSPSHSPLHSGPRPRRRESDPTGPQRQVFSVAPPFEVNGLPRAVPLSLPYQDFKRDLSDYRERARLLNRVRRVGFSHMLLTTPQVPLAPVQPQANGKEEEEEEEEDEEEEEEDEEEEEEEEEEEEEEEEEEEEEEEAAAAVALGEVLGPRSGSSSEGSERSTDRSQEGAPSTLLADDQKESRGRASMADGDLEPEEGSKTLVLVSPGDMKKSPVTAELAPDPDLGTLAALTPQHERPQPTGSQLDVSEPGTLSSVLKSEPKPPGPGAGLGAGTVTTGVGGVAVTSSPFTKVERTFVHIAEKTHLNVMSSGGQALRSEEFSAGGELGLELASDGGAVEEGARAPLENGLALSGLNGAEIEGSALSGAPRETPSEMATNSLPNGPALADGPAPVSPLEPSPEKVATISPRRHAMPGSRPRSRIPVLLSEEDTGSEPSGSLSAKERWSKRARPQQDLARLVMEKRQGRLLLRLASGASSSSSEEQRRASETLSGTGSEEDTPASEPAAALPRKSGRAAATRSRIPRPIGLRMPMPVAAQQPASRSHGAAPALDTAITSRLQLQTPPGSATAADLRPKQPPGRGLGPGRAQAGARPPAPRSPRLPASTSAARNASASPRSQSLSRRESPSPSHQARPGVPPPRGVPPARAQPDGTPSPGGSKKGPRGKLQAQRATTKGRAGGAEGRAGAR
Chain of TTK, construct: Full length (P33981 whole entry, looked up): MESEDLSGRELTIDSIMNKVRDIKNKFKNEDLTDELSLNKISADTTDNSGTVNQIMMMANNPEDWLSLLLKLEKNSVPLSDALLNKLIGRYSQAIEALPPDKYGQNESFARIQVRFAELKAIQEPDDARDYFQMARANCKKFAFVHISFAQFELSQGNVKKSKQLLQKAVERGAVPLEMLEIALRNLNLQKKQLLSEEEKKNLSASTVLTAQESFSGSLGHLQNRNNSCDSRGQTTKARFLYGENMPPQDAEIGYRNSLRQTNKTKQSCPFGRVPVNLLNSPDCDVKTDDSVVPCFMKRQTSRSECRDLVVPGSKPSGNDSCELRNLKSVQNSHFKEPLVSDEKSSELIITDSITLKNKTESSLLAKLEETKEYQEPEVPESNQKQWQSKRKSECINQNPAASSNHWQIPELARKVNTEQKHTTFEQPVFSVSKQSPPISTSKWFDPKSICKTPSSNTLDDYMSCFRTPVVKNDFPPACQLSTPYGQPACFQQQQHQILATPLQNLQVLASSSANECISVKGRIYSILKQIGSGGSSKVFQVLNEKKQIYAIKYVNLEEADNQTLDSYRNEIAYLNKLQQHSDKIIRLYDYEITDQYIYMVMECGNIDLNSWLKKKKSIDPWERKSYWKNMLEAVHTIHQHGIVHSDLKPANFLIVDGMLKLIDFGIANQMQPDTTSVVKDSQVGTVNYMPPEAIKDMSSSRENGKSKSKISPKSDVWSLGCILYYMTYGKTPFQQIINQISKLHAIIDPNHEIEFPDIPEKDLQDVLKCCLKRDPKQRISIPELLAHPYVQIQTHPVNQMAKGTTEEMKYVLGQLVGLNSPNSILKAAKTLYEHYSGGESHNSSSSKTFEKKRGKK

TTBK1, construct: Full length (from UniProt Q5TCY1)
relative phosphorylation
Settings | at +1 | at +2 | at +3 | at +4 | at -1 | at -2 | at -3 | at -4 | at -5
A fixed | 0.474 | 1.63 | 0.964 | 0.817 | 0.663 | 0.79 | 0.94 | 0.821 | 0.856
D fixed | 0.168 | 0.192 | 0.85 | 0.83 | 0.452 | 1.46 | 1.23 | 1.03 | 0.844
E fixed | 0.626 | 0.168 | 1.35 | 0.735 | 0.391 | 1.14 | 0.832 | 0.75 | 0.582
F fixed | 2.09 | 1.42 | 1.49 | 1.32 | 1.99 | 1.06 | 1.43 | 1.33 | 1.78
G fixed | 0.183 | 0.441 | 0.998 | 0.874 | 0.355 | 0.662 | 0.918 | 0.815 | 0.877
H fixed | 0.657 | 1.1 | 0.867 | 0.931 | 0.834 | 0.749 | 0.903 | 0.951 | 0.747
I fixed | 2.66 | 1.23 | 1.54 | 0.714 | 1.67 | 1.02 | 1.56 | 1.24 | 1.19
K fixed | 0.517 | 1.04 | 0.514 | 1.1 | 1.28 | 0.64 | 0.66 | 0.957 | 1.08
L fixed | 1.76 | 0.965 | 1.15 | 0.965 | 1.7 | 2.09 | 1.24 | 1.07 | 0.95
M fixed | 1.5 | 1.31 | 1.29 | 0.855 | 1.08 | 1.23 | 1.04 | 0.933 | 0.79
N fixed | 0.221 | 0.394 | 0.472 | 0.8 | 0.562 | 0.773 | 0.666 | 0.683 | 0.626
P fixed | 0.0712 | 0.231 | 0.421 | 1.23 | 0.589 | 1.04 | 0.649 | 0.687 | 0.7
Q fixed | 0.749 | 0.493 | 0.595 | 0.928 | 0.675 | 0.849 | 0.801 | 0.674 | 0.773
R fixed | 0.789 | 1.42 | 0.641 | 1.41 | 1.23 | 0.934 | 0.888 | 1.06 | 1.22
V fixed | 1.84 | 1.18 | 1.35 | 0.728 | 1.4 | 1.04 | 1.02 | 1.22 | 1.17
W fixed | 1.38 | 2.24 | 1.19 | 1.75 | 1.11 | 0.808 | 1.16 | 1.54 | 1.35
Y fixed | 1.31 | 1.57 | 1.32 | 1.01 | 1.03 | 0.721 | 1.08 | 1.23 | 1.47
pThr fixed | 0.403 | 0.521 | 0.836 | 1.01 | 0.51 | 2.02 | 1.57 | 1.28 | 1.03
pTyr fixed | 1.48 | 12.4 | 1.22 | 0.697 | 0.613 | 2.31 | 2.58 | 1.76 | 1.35

TTK, construct: Full length (from UniProt P33981)
relative phosphorylation
Settings | at +1 | at +2 | at +3 | at +4 | at -1 | at -2 | at -3 | at -4 | at -5
A fixed | 0.968 | 0.742 | 0.497 | 0.739 | 0.798 | 0.532 | 0.845 | 0.952 | 0.97
D fixed | 0.397 | 0.389 | 0.331 | 0.48 | 1.22 | 4.68 | 2.19 | 1.55 | 1.15
E fixed | 0.883 | 0.339 | 0.26 | 0.39 | 0.866 | 2.91 | 1.94 | 1.47 | 0.983
F fixed | 0.541 | 0.748 | 1.48 | 0.895 | 0.671 | 0.373 | 0.55 | 0.76 | 0.791
G fixed | 1.18 | 0.501 | 0.552 | 1.15 | 0.568 | 0.922 | 1.32 | 1.24 | 1.26
H fixed | 0.952 | 1.44 | 0.97 | 1.42 | 1.78 | 0.675 | 1.18 | 1.05 | 1.25
I fixed | 1.29 | 0.784 | 1.89 | 0.746 | 0.696 | 0.294 | 0.419 | 0.51 | 0.604
K fixed | 1.28 | 1.61 | 0.956 | 1.76 | 1.26 | 0.456 | 0.966 | 1.02 | 1.1
L fixed | 1.02 | 0.802 | 2.26 | 0.738 | 0.849 | 0.336 | 0.537 | 0.694 | 0.757
M fixed | 1.49 | 1.02 | 1.29 | 0.868 | 0.905 | 0.453 | 0.651 | 0.865 | 0.884
N fixed | 0.685 | 1.29 | 0.723 | 1.28 | 1.47 | 1.82 | 1.29 | 1.22 | 1.1
P fixed | 0.275 | 0.773 | 0.532 | 0.823 | 0.891 | 0.504 | 0.959 | 0.984 | 1.39
Q fixed | 1.71 | 0.974 | 0.748 | 1.1 | 1.16 | 0.873 | 0.975 | 0.981 | 0.857
R fixed | 1.51 | 1.91 | 1.01 | 1.64 | 1.15 | 0.854 | 1.29 | 1.16 | 1.09
V fixed | 1.45 | 0.963 | 1.23 | 0.651 | 0.837 | 0.337 | 0.487 | 0.675 | 0.784
W fixed | 0.704 | 1.75 | 1.29 | 1.21 | 0.766 | 0.529 | 0.66 | 0.964 | 0.984
Y fixed | 0.659 | 0.971 | 0.984 | 1.12 | 1.12 | 0.453 | 0.734 | 0.899 | 1.04
pThr fixed | 0.734 | 0.393 | 0.576 | 0.455 | 0.7 | 1.12 | 1.75 | 1.37 | 1.41
pTyr fixed | 0.362 | 0.27 | 0.696 | 0.45 | 0.787 | 0.765 | 0.997 | 0.781 | 1.47
